Data: the DeepSol protein solubility set

Test: soluble on expression in E. coli; label from the status in PepcDB or PDB records
For “TKDFNWNTDFIFSNAKNEVTDLKQNANVMELISGNGFAKQGYPVRGLFSIPFVGLDKDGIPVIINEKGEATSTDINFQERQNTGFLKYEGPTDPTITGSLGNMFSYKGFRLNLFITYSFGNVIRLNPVFKAYYSDLTAMTREFKNRWTLPGDEAKTNVPAILSKRMYDSNEDLKYAYNAYNYSTERIAKGDFIRLKEISLAYDFPKAWINPLKLTDLSLKVQATNLFLIYADDKLNGQDPEFFNAGGVASPVPRQFTITLRLGL”, the “soluble on expression in E. coli” value was “not soluble”.
In the case of “MASESSIDEKKKKAQVTQSNINKNTPQQLTDKDLFGNETTLAVSEEDIQAALDGDEFRVPLNSPVILVQSGNRAPETIMQEEMRKYYTVSTFSGIPDRQKPLTCNKNKDKNENEDVASAENMNWMQALRFVAAKGHQKAIIVYQDMLQTGKYDSALKSTVWSDYKNDKLTDAISLRYLVRFTLVDVATGEWATWSPVNYEYKVLPPLPDKNEASTTDMTEQQIMQLKQKTYKAMVKDLVNRYQLEHHHHHH”, the “soluble on expression in E. coli” value was “not soluble”.
For “MIFMFRKVLFPTDFSEGAYRAVEVFEKRNKMEVGEVILLHVIDEGTLEELMDGYSFFYDNAEIELKDIKEKLKEEASRKLQEKAEEVKRAFRAKNVRTIIRFGIPWDEIVKVAEEENVSLIILPSRGKLSLSHEFLGSTVMRVLRKTKKPVLIIKEVDENELAKTKGTSG”, the “soluble on expression in E. coli” value was “soluble”.
With “MTAPHDVPDLTGSGEYLVPDVLQPGLTLVLVGTAPSGISARARAYYANPENKFWRTLHAVGLTPRQLVPQEYATLPQYGLGLTDVAKRHSGVDAALPGEAWRPDELRRKVEHYRPRIVAFTSKRGASETLGVPTGKLPYGPQPQPLDWPAETELWVLPSTSPLGHNHFRLEPWQALGDRVRELRGAAEAGNPSPETPVL” the “soluble on expression in E. coli” value was “soluble”.
With “MADVLTELPGVGPSTADKLIEGGYLDFMKIATATIGELTDIEGISEKAAAKMIMAARDLCDLGFKSGVELLKQRQSVWRLSTGSTELDTVLAGGIESQSVTEFAGMFGSGKTQIMHQTCVNLQMREKIFADLEGVVEEELEAPKAVYIDTEGTFRPERVVQMAEGAGIDGQTVLDNTFVARAYNSDMQMLFAEKIEDLIKGGNNIKLVIIDSLTSTFRNEFTGRGKLAERQQKLGRHMATLNKLADLYNCIVLVTNQVAAKPDAYFGVAEQAIGGHVVGHAATFRFFLRKSKGDKRVAKLYDSPHLPDSEAVFRITEKGIQD” the “soluble on expression in E. coli” value was “soluble”.
For “KAAPAEPATGPFNVSATSPVTGQNYQMSCTAHDHVMRCSGGNNAIVLLTPNPTGVVEEKTYEYALEGTVVLKNTAEVLEGLKPPNNDNPNNEYILLWFDNPMDVAGKHAGNRDQLSTKNVRYLSLGKKETTQYGPLPDTTGPWRQYVGKRIRLHVNSDNMRYPSDTGMPLGALRLEEAPDIRIEEL”, the “soluble on expression in E. coli” value was “not soluble”.
With “GSSGSSGDKKAYFYHSSFQILNVEYTEALNSPATHEYRTLSERIEAMITDEFRGSSLKSEFIRTHVVKLRKEGTGVVADVVMKFRSSKRNNRKVMKTRIQSVLRRLSSSGNLEIAPSNEITSLTDQDT” the “soluble on expression in E. coli” value was “soluble”.
For “MSLEEAVDLSVLYVEDDELSRSGIFNALKRKVKNIHFAANGQEGLEVFKEHRPDVVITDIKMPLLNGLEMAKQILEMEPSVEIIVATAFEDAELFKRAIDLDVDKYLTKPLDVTQILMHLKRIEMQKRLEREFEVYSRALNEVASIFWFDLELECLKVNPRAIASGGEHGVENEKLKEMARLALEKGGRHQEGNKIFSVAFNVAKEPKGFCLCVMESMEEGHHHHHH”, the “soluble on expression in E. coli” value was “soluble”.
In the case of “MVRGVFVGLFSKKQSVLVGVDISSTAVKLLQLSRSGNRFKVEHYAVEPLPLNAVAEKGIVEVEQVGEAIRRAVSRSGTKAKFAAAAVAGSAVITKLIPMPAGLDEQDLEAQIEIEATNYIPYPIEEVSLDFEVLGPVPNNTEMVQVLLAASRSENVELRQSALELGGLTAKVIDVEALAVENAFSLIAQELSVGSNALVALIDIGATMSTLNVLHSGRSLYAREQLFGGKQLTDEVMHRYGMTYEEAGQAKRQGGLPQSYEVEVLGPFKDSVIQQISRLLQFFYAGSEYNRVDCIVLAGGCAVIAGLPAMVEERLGVVTVVANPLAQMTLGAKVQAHTLAQDAPALMIATGLALRSFD”, the “soluble on expression in E. coli” value was “not soluble”.
In the case of “MSLYELTEDFKLRKITKYELDGIDEREDLLVIPPSSKAGPCGNACLFCYLLQNPPEMIYKVPRHDTLNDPDLENRIRYARKHYDLWIRVTDTSGNIKFDENRIKSLYDAGLDEIQISVHTTKKDVRARLMRNRQAGKLIDLLPLVAKHFRTIADIILTPGFNVEDIGEIIEDLDSMGVHEVRLFPVGVTRYNKFGVRPLTREELSYVKGIALEKDKELAIKVVIPPIFLALLGEFTTGLEPFDIEPDFPTYIFTGELAYQEMKRLFPRVNVIMVKNEFFGGNIGSAGLLTGRDILREVEKLPEVDLGLIILPELMFYGDMTLDGWRRQELFSKILIEKGYIVETALEPTEIPRVIEKVTLEGHHHHHH”, the “soluble on expression in E. coli” value was “soluble”.
In the case of “DEAMLKIEQQEVVKNLPVGSKLVQLKYAGHSTDEPLLNQIYKEFEVTANILYGNIEILDGIPVGEMVVILSGDEEKLRQACQAITDSQVQLTLLKEGG”, the “soluble on expression in E. coli” value was “not soluble”.
With “MLSPQTTQVAIIGAGPSGSIAAALLNKHNINCIILEKSTFPRFSIGESLLPACMESIKHAGMLNAVEDACFQFKDGAAFHCNGTFTSFDFTDKFTDGAGTTFQVQRGNFDKVLADCAKEQGVEIRYQHEITDVDVNAEKPLLSVLDENGTPYQIQADFILDASGFGRVLPKLLELEEPSCLPPRRAIFTHIKDNITDESYDRNKILVSVHPTNTQVWYWLIPFSNGTCSFGVVGEPEFFDAYSEDKVTALKQLAEEESNLKHLLNQAEYPNPCGEIMGYSANVSKLFDKNFALLGNAGEFLDPVFSSGVTIAMKSAELAADLLIKQFNQEDVNWQQDYSDKLMKGVNAFRCYVEGWYEGTFQDVIFHENPNPKIKQMICAILAGYAWDESNPFVAEPERRLKVVAELCKPLEHHHHHH” the “soluble on expression in E. coli” value was “not soluble”.
For “GPGSMAEEIRTMIIGTSSAFRANVLREHFGDRFRNFVLLPPDIDEKAYRAADPFELTESIARAKMKAVLEKARQHSPPISGPAIALTFDQVVVKGDEVREKPLSTEQCRSFIASYSGGGVRTVATYALCVVGTENVLVAHNETETFFSKFGDDIVERTLERGACMNSAGGLVVEDEDMSRHVVRIVGTSYGVRGMEPAVVEKLLSQL”, the “soluble on expression in E. coli” value was “soluble”.
In the case of “MGSSHHHHHHSSGLVPRGSHMQQKLTSPDNNLVMTFQVDSKGAPTYELTYKNKVVIKPSTLGLELKKEDNTRTDFDWVDRRDLTKLDSKTNLYDGFEVKDTQTATFDETWQPVWGEEKEIRNHYNELAVTLYQPMNDRSIVIRFRLFNDGLGFRYEFPQQKSLNYFVIKEEHSQFGMNGDHIAFWIPGDYDTQEYDYTISRLSEIRGLMKEAITPNSSQTPFSQTGVQTALMMKTDDGLYINLHEAALVDYSCMHLNLDDKNMVFESWLTPDAKGDKGYMQTPCNTPWRTIIVSDDARNILASRITLNLNEPCKIADAASWVKPVKYIGVWWDMITGKGSWAYTDELTSVKLGETDYSKTKPNGKHSANTANVKRYIDFAAAHGFDAVLVEGWNEGWEDWFGNSKDYVFDFVTPYPDFDVKEIHRYAARKGIKMMMHHETSASVRNYERHMDKAYQFMADNGYNSVKSGYVGNIIPRGEHHYGQWMNNHYLYAVKKAADYKIMVNAHEATRPTGICRTYPNLIGNESARGTEYESFGGNKVYHTTILPFTRLVGGPMDYTPGIFETHCNKMNPANNSQVRSTIARQLALYVTMYSPLQMAADIPENYERFMDAFQFIKDVALDWDETNYLEAEPGEYITIARKAKDTDDWYVGCTAGENGHTSKLVFDFLTPGKQYIATVYADAKDADWKENPQAYTIKKGILTNKSKLNLHAANGGGYAISIKEVKDKSEAKGLKRL”, the “soluble on expression in E. coli” value was “soluble”.
For “MKLEGVWKVFGNVVAVRDVNLYIEDKEFVSILGPSGSGKTTLLYLIAGIYKPSRGRIYFNDVDVTDLPPNKRNIGLVFQNYALYPHMTVYENIAFPLRLRNFGEPAIKEKVLSVAKLLGIEGLLDRYPAQLSGGQQQRVALARALVKEPEVLLLDEPLSNLDALLRIKIRSELKKLQKELGITAIYVTHDQSEALAMADRIAIIASGVIQQVGKPWDVYYKPRNVFVASFIGTPPANLVSVPLDSSRRCLLLPGGGRYCPPRRIAEKLAAVKTNSVILGFRPEVAVLSESPLGDYVSMEAEVYTVETLGRENIVTLLVNGSQVKVIVPPVVEPRPGSRIFINIEEDKVMYFDPETEINVEYLEVPGMEEAIAESAGTLRKQEMEEEWD”, the “soluble on expression in E. coli” value was “soluble”.
For “MPDHLQPTLFQDAGKTQASDTFQELLASIAARPKYLPDWPESHRALPNEILRSALFNCRNRNLPRMFLKEVEIAVIGDGQVIYRGEELRQDDELVWMHLMHLIKKSPLGECVEFTPYSFIKALGWPIKGQNYDRLRNCLSRMQATALRIQSKRLHSFVSISLIQKFLSRNERNESLTRWQVWVGKEMQLLFDEEFLTRVMWETRRSLPDGIASKLFGYWASHRKPYPVKVETLLKLCGSGMQTKHFKIELKRALDLLKQSGFLEAWELKDELVVVVRRH”, the “soluble on expression in E. coli” value was “not soluble”.
For “SNQECPDYLRELIRKTKTLTEKPFGIGVVLAFPHDLNIKTILEEKVAVLQLYWGDCSQELVDDAHFAGVKVIPQVGNVEEARKAVAVGVDAIIVQGREAGGHVIGKDGLFSLLPRVVDLVGERDIPVIAAGGIVDGRGYVAALSLGAQGVCLGTRFVATHESYAHPIYKRKLIEYEKTEYTDVFGRARWPGAPQRVLETPFFDDWRSLPAHENEVNQPIIGRSTIHGVEKEIRRFSGTVPNMTTTGDLESMAMYAGQSVGLIKEILPAGEVVKSLVEEAQALILQKFNNATTT”, the “soluble on expression in E. coli” value was “soluble”.
In the case of “AHHHHHHGSNSKEFRKIALVGASKNPAKYGNIILKDLLSKGFEVLPVNPNYDEIEGLKCYRSVRELPKDVDVIVFVVPPKVGLQVAKEAVEAGFKKLWFQPGAESEEIRRFLEKAGVEYSFGRCIMVETSNKKIFLEV”, the “soluble on expression in E. coli” value was “soluble”.
In the case of “SNAQESRLDRILESGVLRVATTGDYKPFSYRTEEGGYAGFDVDMAQRLAESLGAKLVVVPTSWPNLMRDFADDRFDIAMSGISINLERQRQAYFSIPYLRDGKTPITLCSEEARFQTLEQIDQPGVTAIVNPGGTNEKFARANLKKARILVHPDNVTIFQQIVDGKADLMMTDAIEARLQSRLHPELCAVHPQQPFDFAEKAYLLPRDEAFKRYVDQWLHIAEQSGLLRQRMEHWLEYR”, the “soluble on expression in E. coli” value was “soluble”.
With “MNIQEKFKAIRKQRKLSLRDLANVAGSTSSISDFEKGKTNLSNDVLLQLLGFMVVEINEIFEWSAFQDAEFLELMTQVENALQTQDITVLIQKRETLQEFFVAKNHYIYHIISLVLDVIISKLQEKEPTPEIISELTDYFFSLDYWTNLDVGLLGNIVHHFTTETLVLFTDSILKNTPNQLRNNLDRIKIDTVINCLSVLLARREKNASQELLQLLSRKQFPTYFTYEKLCISEFKAIYMYIWCDKEEADNIHQTILKTVSLLFTKDEANKWDDYFKEIISSADIKK” the “soluble on expression in E. coli” value was “not soluble”.
For “YTIYKEPLSLAPFEKIPSPLRRGLGKVAEVFPDGMRGKSLLQRGSMTMEERYYGNARSFNFDQMKRVIPWAKKEWDHREVTAPIYAQSEHMDPVARMQHLDLFTWMRGDILVKADKINMAHSLELRVPFLDKEVFEVAETIPYDLKIANGTTKYALRKAMEQIVPPHVLHRKKLGFPVPMRHWLAGDELFGWAQDTINESMTDQYFDKAAVLAMLNEHKNGVSDHSRRLWTVLAFMIWHGIFVEHRIDPGIEKRDYPVYL”, the “soluble on expression in E. coli” value was “not soluble”.
With “MSLATILIADDDPVTRTTLSIMLEDEDHEVYEAADSAETLDLLETTEPHVVFMDMVLPDCEAGEGITRVRRAAPAVTIIAMTGQPDTARFSAMARDAGCKECLIKPFEKNRVLALTRKVLAARGHKEGHHHHHH” the “soluble on expression in E. coli” value was “not soluble”.
